Laboratory results reported in the supplement of paper PMC7877785.
± gives the uncertainty stated by the source.

Experiment: self-splicing fitness, log relative to wild type (ln ratio); higher = more splicing; Tetrahymena group I intron in knt gene, E. coli kanamycin selection, DiMSum; sequences stand for … in CUCUCU…GGAGGGAAAAGUUAUCAGGCAUGCACCUGGUAGCUAGUCUUUAAACCAAUAGAUUGCAUCGGUUUAAAAGGCAAGACCGUCAAAUUGCGGGAAAGGGGUCAACAGCCGUUCAGUACCAAGUCUCAGGGGAAACUUUGAGAUGGCCUUGCAAAGGGUAUGGUAAUAAGCUGACGGACAUGGUCCUAACCACGCAGCCAAGUCCUAAGUCAACAGAUCUUCUGUUGAUAUGGAUGCAGUUCACAGACUAAAUGUCGGUCGGGGAAGAUGUAUUCUUCUCAUAAGAUAUAGUCGGACCUCUCCUUAAUGGGAGCUAGCGGAUGAAGUGAUGCAACACUGGAGCCGCUGGGAACUAAUUUGUAUGCGAAAGUAUAUUGAUUAGUUUUGGAGUACUCGUGGUCG
Outline: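 Six replicate transformations of E. coli BL21(DE3) with a pET-22b(+) library were grown overnight at 37°C or 30°C. The library randomised all eight P1ex-region intron nucleotides, the intron lying in the knt kanamycin-resistance gene, and plates were LB agar with or without 25 μg/mL kanamycin plus 100 μg/mL carbenicillin, 50 μM IPTG and 0.2% rhamnose. Pooled colonies were amplicon-sequenced on an Illumina HiSeq 2500, and fitness is the DiMSum error-weighted combination of wild-type-normalised replicate fold changes, kanamycin versus none.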

Row | Sequence | self-splicing fitness (ln) (30 °C) | self-splicing fitness (ln) (37 °C)
1 | CCCUAGCAAUAUUACGAUCA | -3.03 ± 0.25 | -2.22 ± 0.24
2 | CCUCAGCAAUAUUACGAGAU | -3.32 ± 0.18 | -3.16 ± 0.24
3 | UUUCAGCAAUAUUACGGAUG | -0.64 ± 0.064 | 0.256 ± 0.096
4 | GGGAAGCAAUAUUACGAUCC | -2.12 ± 0.22 | -1.11 ± 0.35
5 | AAAGAGCAAUAUUACGUUAU | -3.71 ± 0.25 | -2.49 ± 0.23
6 | UUGUAGCAAUAUUACGACUU | -0.894 ± 0.3 | 0.769 ± 0.36
7 | GUUAAGCAAUAUUACGAUGG | – | -1.77 ± 0.23
8 | UUAGAGCAAUAUUACGCAGG | -2.7 ± 0.2 | -0.784 ± 0.16
9 | CCGAAGCAAUAUUACGACAU | -3.977 ± 0.028 | -2.82 ± 0.04
10 | ACGCAGCAAUAUUACGGCUU | -0.345 ± 0.046 | -0.227 ± 0.057
11 | UCAUAGCAAUAUUACGCGAU | -1.9 ± 0.22 | –
12 | CCUAAGCAAUAUUACGCUCC | -4.01 ± 0.46 | -2.97 ± 0.29
13 | AUUUAGCAAUAUUACGUGAG | -1.6 ± 0.083 | -0.846 ± 0.13
14 | UAGGAGCAAUAUUACGUUAG | -3.8 ± 0.3 | -2.71 ± 0.49
15 | UGAUAGCAAUAUUACGAACA | -0.502 ± 0.18 | 0.324 ± 0.26
16 | GUGGAGCAAUAUUACGUCCG | -3.12 ± 0.33 | -1.01 ± 0.33
17 | UUGUAGCAAUAUUACGAUUA | -0.945 ± 0.11 | -0.211 ± 0.1
18 | AUAGAGCAAUAUUACGACCA | -2.34 ± 0.18 | -1.49 ± 0.27
19 | CGAGAGCAAUAUUACGAAAG | -3.64 ± 0.4 | -1.55 ± 0.31
20 | AAUUAGCAAUAUUACGAAGC | -1.94 ± 0.27 | –
21 | CAAAAGCAAUAUUACGUCCG | -0.119 ± 0.082 | 0.175 ± 0.1
22 | GUAAAGCAAUAUUACGGGAG | -3.68 ± 0.25 | -1.67 ± 0.14
23 | GGGCAGCAAUAUUACGAUAA | -2.67 ± 0.21 | -1.75 ± 0.18
24 | UUCUAGCAAUAUUACGGACG | -1.14 ± 0.15 | 0.26 ± 0.15
25 | UGAGAGCAAUAUUACGCACG | -2.77 ± 0.19 | -0.671 ± 0.2
26 | CUACAGCAAUAUUACGGGGC | -2.95 ± 0.2 | -2.57 ± 0.22

Row | Sequence | self-splicing fitness (ln) (30 °C) | self-splicing fitness (ln) (37 °C)
27 | CUUAAGCAAUAUUACGUUGC | – | -2.03 ± 0.35
28 | GAGGAGCAAUAUUACGGGUA | – | -2.26 ± 0.36
29 | AUGAAGCAAUAUUACGCGAC | -2.1 ± 0.15 | -1.96 ± 0.27
30 | GUACAGCAAUAUUACGAGUU | -1.7 ± 0.094 | -1.36 ± 0.12
31 | ACUUAGCAAUAUUACGCGGG | -3.38 ± 0.27 | -2.75 ± 0.2
32 | UGUGAGCAAUAUUACGCCUG | -1.48 ± 0.16 | -1.05 ± 0.16
33 | UUGAAGCAAUAUUACGACAU | 0.0991 ± 0.013 | 0.28 ± 0.033
34 | GCUGAGCAAUAUUACGCGAG | -2.52 ± 0.16 | -1.83 ± 0.23
35 | UAACAGCAAUAUUACGCCGU | -3.54 ± 0.24 | -1.94 ± 0.19
36 | UUCGAGCAAUAUUACGAUCC | -2.6 ± 0.49 | –
37 | CCAAAGCAAUAUUACGAGUG | -0.346 ± 0.039 | -0.144 ± 0.058
38 | CUAAAGCAAUAUUACGCACA | -2.11 ± 0.16 | -2.11 ± 0.27
39 | UUUUAGCAAUAUUACGUCCU | – | 0.494 ± 0.32
40 | CUCCAGCAAUAUUACGCGAC | -3.79 ± 0.2 | -2.31 ± 0.18
41 | AGAUAGCAAUAUUACGCGAC | -2.67 ± 0.29 | -1.21 ± 0.39
42 | CGUAAGCAAUAUUACGGGGU | -3.79 ± 0.18 | -3.36 ± 0.25
43 | CGAGAGCAAUAUUACGUGAU | -4.24 ± 0.24 | -2.58 ± 0.2
44 | GGUCAGCAAUAUUACGGCAG | -0.557 ± 0.081 | -0.497 ± 0.11
45 | CUUGAGCAAUAUUACGGUGC | -3.34 ± 0.35 | -2.19 ± 0.42
46 | CCACAGCAAUAUUACGCCAA | -2.96 ± 0.2 | -2.1 ± 0.23
47 | UAGAAGCAAUAUUACGAAAU | -3.48 ± 0.24 | -1.95 ± 0.21
48 | ACCGAGCAAUAUUACGAAUA | -3.02 ± 0.32 | -2.41 ± 0.2
49 | GUGGAGCAAUAUUACGUCAC | -3.5 ± 0.39 | -1.99 ± 0.26
50 | GCUCAGCAAUAUUACGAAAC | -0.549 ± 0.14 | -0.851 ± 0.17
51 | AAUGAGCAAUAUUACGCUGC | – | -1.24 ± 0.24
52 | CGGCAGCAAUAUUACGGCUU | -0.457 ± 0.065 | 0.278 ± 0.095

Row | Sequence | self-splicing fitness (ln) (30 °C) | self-splicing fitness (ln) (37 °C)
53 | CUUCAGCAAUAUUACGUGGC | -2.61 ± 0.23 | -2.08 ± 0.43
54 | CGCGAGCAAUAUUACGCUUG | -3.06 ± 0.2 | -1.46 ± 0.22
55 | CUACAGCAAUAUUACGUAGG | -1.39 ± 0.059 | -1.14 ± 0.093
56 | GGCAAGCAAUAUUACGGGGU | -2.5 ± 0.099 | -0.776 ± 0.094
57 | CCCUAGCAAUAUUACGCUGA | -3.14 ± 0.23 | -2.85 ± 0.38
58 | UCCGAGCAAUAUUACGUCUG | -3.5 ± 0.24 | –
59 | ACCGAGCAAUAUUACGUGCU | -3.32 ± 0.25 | -2.49 ± 0.27
60 | GCGUAGCAAUAUUACGCAAA | -2.37 ± 0.33 | -3.44 ± 0.42
61 | CCUCAGCAAUAUUACGUUGU | -4.98 ± 0.23 | -2.52 ± 0.13
62 | UGUCAGCAAUAUUACGCAGC | -3.7 ± 0.32 | -0.622 ± 0.24
63 | CGAAAGCAAUAUUACGGGUG | 0.0165 ± 0.043 | 0.189 ± 0.063
64 | GCAUAGCAAUAUUACGAGGC | -3.26 ± 0.43 | -1.27 ± 0.36
65 | UACGAGCAAUAUUACGUAGU | -3.39 ± 0.32 | -2.95 ± 0.33
66 | ACCUAGCAAUAUUACGCUAG | -3.86 ± 0.25 | -2.79 ± 0.28
67 | CUGAAGCAAUAUUACGAGAA | -3.29 ± 0.3 | –
68 | GAUUAGCAAUAUUACGCGGG | -2.31 ± 0.12 | -2.53 ± 0.18
69 | UUUUAGCAAUAUUACGGGCG | -0.356 ± 0.12 | -0.216 ± 0.19
70 | GCGUAGCAAUAUUACGGAGG | -3.61 ± 0.23 | -1.98 ± 0.18
71 | CCGGAGCAAUAUUACGAUAC | – | -1.97 ± 0.36
72 | GAUGAGCAAUAUUACGGGGG | -4.46 ± 0.34 | -1.44 ± 0.25
73 | ACAAAGCAAUAUUACGAACC | -0.815 ± 0.21 | -1.44 ± 0.19
74 | AGCUAGCAAUAUUACGGCAA | -0.629 ± 0.081 | -0.284 ± 0.097
75 | UUAAAGCAAUAUUACGGAGA | -1.64 ± 0.15 | 0.00703 ± 0.2
76 | GCGGAGCAAUAUUACGCAUA | -2.55 ± 0.49 | -2.74 ± 0.36
77 | GGGUAGCAAUAUUACGGGAC | -2.79 ± 0.2 | -0.633 ± 0.13
78 | GGGCAGCAAUAUUACGAAAU | -1.42 ± 0.25 | -1.24 ± 0.22
